Results: publication PMC5712780, “Ymr210wp leads to the accumulation of phospholipids and steryl esters in yeast” (Bioinformation, 2017)

Key:
Experiment in all cases: p-nitrophenyl ester hydrolysis assay, Michaelis-Menten fit
Type in all cases: biochemical, Saccharomyces cerevisiae
[1] = substrate: CC(=O)Oc1ccc([N+](=O)[O-])cc1; conditions: optimum pH 7.5 and 30°C (kinetic conditions not stated); text b29 prints error ±2.95; pH 7.5; 30.0 °C
Description: (§1) p-nitrophenyl ester hydrolysis assay, Michaelis-Menten fit on Ymr210wp

[2] = substrate: CCCCCCCCCCCCCCCC(=O)Oc1ccc([N+](=O)[O-])cc1; conditions: optimum pH 8.5 and 45°C (kinetic conditions not stated); pH 8.5; 45.0 °C
Description: as §1

[3] = substrate: CCCC(=O)Oc1ccc([N+](=O)[O-])cc1; conditions: optimum pH 7.5 and 30°C (kinetic conditions not stated); pH 7.5; 30.0 °C
Description: as §1

B1: Ymr210wp (Saccharomyces cerevisiae S288C) (protein)
chain: MRLKELLPNFLIVHQEVPEDPIAFKSTDKRENENKEITIPELIDTKVPELADGATDTLYGLLVNGHLQTAYGSFRHFDNIYKVQYKRMIIKYPHGGEGTVDFAVNGRSTKRRKVEKEYVPTSQPVFNGNLKRRYSYYSPDDPKLNSDDAKPMLIILHGLTGGSRESYVRAIVHEITTKYDFEACVFNARGCCYSAITTPLLYNGGWTNDIRYCVNDLRKRFPNRKFYMMGFSLGASIMTNYLGEESDRTKIECAISVSNPFDLYNSAYFINSTPMGSRFYSPALGHNLLRMVRNHLSTLEENPDFKDVIEKHLKKIRTVRQFDNLLTGPMFGYKNAEEYYKNASSYKRIPGIRTPFIALHAQDDPIVGGDLPIDQIKSNPYTLLLETSTGGHVGWFKDRSGRRWYAEPLCRFLKIFHDEITVKGLKPDLENVQLPDPNCEPIATTFRAN
notes: YMR210w cloned in pYES2/CT, His-tagged, expressed in S. cerevisiae BY4741, Ni-NTA purified
- Km [1]: 11.51 ± 1.09 mM
- Km [2]: 13.19 ± 1.03 mM
- Km [3]: 7.28 ± 1.61 mM
